# In US20220242946A1 (Johns Hopkins, published 2022):
# Where two headings read alike, the source gives them in different places.
# B1: recombinant F5111 antibody (human IgG1 lambda) (antibody, V domains shown)
# VH: QLQLQESGPGLVKPSQTLSLTCTVSGGSISSGGYYWSWIRQHPGKGLEWIGYIYYSGSTYYNPSLKSRVTISVDTSKNQFSLKLSSVTAADTAVYYCARTPTVTGDWFDPWGRGTLVTVSS
# VL: SNFMLTQPHSVSESPGKTVTISCTRSSGSIASNYVQWYQQRPGSSPTTVIYEDNQRPSGVPDRFSGSIDSSSNSASLTISGLKTEDEADYYCQSYDSSNVVFGGGTKLTVLG
# notes: Expressed in HEK 293F cells; also called F5111 Ab; monoclonal antibody F5111
# Tests used:
# [1] = biological target: human IL-2 (residues 1-133) displayed on the surface of yeast (human, UniProt P60568 21-153); test: titration of soluble antibody on yeast-displayed hIL-2, flow cytometry; apparent bivalent affinity
# human IL-2 (residues 1-133) displayed on the surface of yeast, sequence (P60568 21-153 limits assumed): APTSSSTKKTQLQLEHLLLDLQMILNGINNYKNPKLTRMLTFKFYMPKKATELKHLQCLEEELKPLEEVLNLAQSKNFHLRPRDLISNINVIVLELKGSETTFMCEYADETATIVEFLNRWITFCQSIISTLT
# Protocol: After a final wash, cells were analyzed for antibody binding using a CytoFLEX flow cytometer (Beckman Coulter). Background-subtracted and normalized binding curves were fitted to a first-order binding model and equilibrium dissociation constant (KD) values were determined using GraphPad Prism.
# After a 3-day incubation, secreted protein was captured from the supernatant with protein G resin, eluted with 0.1 M glycine pH 2.0, and analyzed via SDS-PAGE. […] Immunocytokine expression was scaled up in HEK 293F cells and the secreted protein was purified via protein G affinity chromatography followed by size-exclusion chromatography.
# [2] = biological target: T1, biotinylated human IL-2 immobilized on streptavidin-coated tips (human, UniProt P60568 21-153, biotinylated (site not stated)); test: bio-layer interferometry equilibrium titration, biotinylated hIL-2 on streptavidin tips
# T1 construct: The construct used for biotinylated hIL-2 is not described; probably as the soluble hIL-2 (residues 1-133) with tags; also called biotinylated hIL-2; immobilized hIL-2; not shown: tags of the biotinylated hIL-2 are not described (the biotin acceptor peptide is told only for hIL-2Ra and hIL-2Rb)
# T1 sequence (P60568 21-153): as the sequence (P60568 21-153 limits assumed) above
# Protocol: (§1) Less than 5 signal units (nm) of receptor was immobilized to minimize mass transfer effects. […] Surface regeneration for all interactions was conducted using a 15 second exposure to 0.1 M glycine pH 3.0. Experiments were carried out in PB SA (phosphate-buffered saline, pH 7.3 plus 0.1% bovine serum albumin (BSA, Thermo Fisher Scientific)) at 25° C. Data was visualized and processed using the Octet® Data Analysis software version 7.1 (Molecular Devices). Equilibrium titration curve fitting and KD value determination was implemented using GraphPad Prism, assuming all binding interactions to be first order.
# [3] = biological target: T1, biotinylated human IL-2 immobilized on …; test: as above; remark: listed apart in the source
# Protocol: as §1
binder,measurement,setting,value
B1,Kd,[1],0.42 nM
same,EC50 (read off the curve),[2],~3 nM
same,EC50 (read off the curve),[3],~0.6 nM
